Our source for the kon, koff and Kd values is US20240343810A1 (published 2024).

B1: STIM003_289_LAGA (bispecific antibody, V domains shown, not shown: a dimerising Fc or GST)
VH: EVQLVESGGGVVRPGGSLRLSCVASGVTFDDYGMSWVRQAPGKGLEWVSGINWNGGDTDYSDSVKGRFTISRDNAKNSLYLQMNSLRAEDTALYYCARDFYGSGSYYHVPFDYWGQGILVTVSS
VL: EIVLTQSPGTLSLSPGERATLSCRASQSVSRSYLAWYQQKRGQAPRLLIYGASSRATGIPDRFSGDGSGTDFTLSISRLEPEDFAVYYCHQYDMSPFTFGPGTKVDIK
notes: LAGA variant of STIM003_289
B2: STIM003_457_LAGA (bispecific antibody, V domains shown, not shown: a dimerising Fc or GST)
VH: B1 VH
VL: B1 VL
notes: LAGA variant of STIM003_457
B3: STIM001_289_LAGA (bispecific antibody, V domains shown, not shown: a dimerising Fc or GST)
VH: QVQVVQSGAEVKKPGASVKVSCKASGYTFSTFGITWVRQAPGQGLEWMGWISAYNGDTNYAQNLQGRVIMTTDTSTSTAYMELRSLRSDDTAVYYCARSSGHYYYYGMDVWGQGTTVTVSS
VL: DIVMTQSPLSLPVTPGEPASISCRSSQSLLHSNEYNYLDWYLQKPGQSPQLLIFLGSNRASGVPDRFSGSGSGTDFTLKITRVEAEDVGIYYCMQSLQTPLTFGGGTKVEIK
B4: STIM001_457_LAGA (bispecific antibody, V domains shown, not shown: a dimerising Fc or GST)
VH: B3 VH
VL: B3 VL
notes: LAGA variant of STIM001_457

In the first experiment the target is T1, Biotinylated human ICOS protein (human, UniProt Q9Y6W8 21-140, limits assumed, biotinylated (sites not given)).
T1 construct: Captured on the NLC chip in the avidity SPR
T1 sequence: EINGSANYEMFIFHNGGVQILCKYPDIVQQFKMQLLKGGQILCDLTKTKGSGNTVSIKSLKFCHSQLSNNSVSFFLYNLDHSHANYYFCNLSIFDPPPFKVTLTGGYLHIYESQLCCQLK
The experiment can be described thus: SPR ProteOn avidity format, biotinylated human ICOS on NLC chip; calculated on-rate. The protocol: (§1) Biotinylated human ICOS protein diluted at 7.5 μg/mL in running buffer (1× HBS-EP+ Buffer Technova, cat. No. H8022) was captured on a NLC sensor chip (Bio-Rad, cat No 1765021). The surface was then blocked using biocytin (Sigma Aldrich, cat No B1758) at 1 mg/mL.
(§2) The assay was carried out at 25° C.
The buffer injection (i.e. 0 nM) was used to double reference the sensorgrams. […]
As usually defined, the kon is a measure of how fast the partners come together. In the case of B1, the kon was 477000 M⁻¹ s⁻¹.

For the molecule B2, the kon was 284000 M⁻¹ s⁻¹.

For B3, the kon was 13900 M⁻¹ s⁻¹.

In the case of B4, the kon was 31300 M⁻¹ s⁻¹.

In a further experiment the target is T1, Biotinylated human ICOS protein. The experiment can be described thus: SPR ProteOn avidity format, biotinylated human ICOS on NLC chip, antibody analyte, 25 C. The protocol:
as §1, §2
(§3) The buffer injection (i.e. 0 nM) was used to double reference the sensorgrams. The analysis was carried out using the equilibrium model inherent to the ProteOn's analysis software for each mAb² construct.
One may read the koff as the rate constant with which the complex falls apart. Low readings indicate slow dissociation, high ones fast dissociation. The molecule B1 came in with a koff of 0.000278 s⁻¹.

Take B2: the koff amounted to 0.000232 s⁻¹.

The molecule B3 gave a koff of 0.000354 s⁻¹. This koff is about 1.5-fold higher than that of the molecule before.

B4 gave a koff of 0.000332 s⁻¹. The koff values of the last two molecules are within 1.5-fold of each other.

For another experiment the target is unchanged. Briefly: SPR ProteOn avidity format, biotinylated human ICOS on NLC chip, antibody analyte; apparent KD from equilibrium, 25 C. The protocol:
as §1, §2, §3
Consider B1, for which the Kd came out at 0.6 nM.

For B2, the Kd turned out to be 0.8 nM.

Regarding B3, the Kd was 25.4 nM.

On to B4, for which the Kd was 10.6 nM.
